One assay deals with T1, human C4b (human) (UniProt P0C0L4).
T1 sequence: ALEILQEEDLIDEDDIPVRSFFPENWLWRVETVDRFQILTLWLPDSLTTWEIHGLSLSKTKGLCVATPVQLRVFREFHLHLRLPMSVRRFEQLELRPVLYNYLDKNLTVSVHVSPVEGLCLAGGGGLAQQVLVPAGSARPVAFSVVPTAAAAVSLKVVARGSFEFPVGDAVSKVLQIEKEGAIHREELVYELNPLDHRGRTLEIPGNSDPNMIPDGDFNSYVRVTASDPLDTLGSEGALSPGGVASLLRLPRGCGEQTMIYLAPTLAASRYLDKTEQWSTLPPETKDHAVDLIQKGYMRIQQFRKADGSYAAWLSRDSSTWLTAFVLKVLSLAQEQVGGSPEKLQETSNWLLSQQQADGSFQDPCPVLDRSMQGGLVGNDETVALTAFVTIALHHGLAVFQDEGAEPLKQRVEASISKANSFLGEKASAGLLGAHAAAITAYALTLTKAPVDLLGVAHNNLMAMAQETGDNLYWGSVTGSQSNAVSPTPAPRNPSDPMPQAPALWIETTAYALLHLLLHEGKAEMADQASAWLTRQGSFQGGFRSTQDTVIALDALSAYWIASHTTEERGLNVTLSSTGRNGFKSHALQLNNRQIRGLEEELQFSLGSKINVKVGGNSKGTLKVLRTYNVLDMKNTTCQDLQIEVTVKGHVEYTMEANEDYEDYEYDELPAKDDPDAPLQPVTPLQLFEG

The target of assay [1] is soluble human C3b (human) (UniProt P01024).

With CFI-HSA variant N531V (enzyme), the C4b Screen Ref Fold (fold of reference) with human C4b (human) turned out to be 0.75. Also, in assay [1], the iC3b Screen Ref Fold (fold of reference) came to 0.57.
Consider CFI-HSA variant N531W (enzyme), for which the C4b Screen Ref Fold (fold of reference) in the assay with human C4b (human) was 0.95. Further, the iC3b Screen Ref Fold (fold of reference) in assay [1] is 0.29.
As for CFI-HSA variant N531Y (enzyme), the C4b Screen Ref Fold (fold of reference) in the assay with human C4b (human) came out at 2.94. In addition, the iC3b Screen Ref Fold (fold of reference) in assay [1] amounted to 0.91.
Turning to CFI-HSA variant P558G (enzyme), in the assay with human C4b (human), the C4b Screen Ref Fold (fold of reference) was determined as 0.4. Also, in assay [1], the iC3b Screen Ref Fold (fold of reference) stood at 1.21.
CFI-HSA variant P558S (enzyme): the C4b Screen Ref Fold (fold of reference) in the assay with human C4b (human) was 0.77. In assay [1], the iC3b Screen Ref Fold (fold of reference) is 1.56.
On the same counts, the results for “CFI-HSA variant P558S; F559L; I560V; Y563H (enzyme)” are 0.63 and 1.24.
For CFI-HSA variant P558S; S507A (enzyme), in the assay with human C4b (human), the C4b Screen Ref Fold (fold of CFI-HSA wild type) was found to be 0.08. For the same substance, the iC3b Screen Ref Fold (fold of CFI-HSA wild type) in assay [1] was -0.04.
Regarding CFI-HSA variant Q373G (enzyme), the C4b Screen Ref Fold (fold of CFI-HSA wild type) with human C4b (human) came out at 0. In addition, the iC3b Screen Ref Fold (fold of CFI-HSA wild type) in assay [1] was found to be 0.02.
As for CFI-HSA variant Q409D (enzyme), in the assay with human C4b (human), the C4b Screen Ref Fold (fold of reference) was 0.09. The iC3b Screen Ref Fold (fold of reference) in assay [1] was found to be 0.14.
Consider CFI-HSA variant Q409G (enzyme), for which the C4b Screen Ref Fold (fold of reference) in the assay with human C4b (human) worked out at 0.36. In assay [1], the iC3b Screen Ref Fold (fold of reference) was 0.33.
On the same counts, the results for CFI-HSA variant Q409Y (enzyme) are 0.29 and -0.01.
On the same counts, the results for CFI-HSA variant R314A (enzyme) are 1.83 and 0.85.
In the case of CFI-HSA variant R388G (enzyme), the C4b Screen Ref Fold (fold of CFI-HSA wild type) with human C4b (human) was determined as 0.18. Also, the iC3b Screen Ref Fold (fold of CFI-HSA wild type) in assay [1] was found to be 0.22.
Consider CFI-HSA variant R462G (enzyme), for which the C4b Screen Ref Fold (fold of CFI-HSA wild type) with human C4b (human) amounted to 0.25. Also, the iC3b Screen Ref Fold (fold of CFI-HSA wild type) in assay [1] came out at 0.
“CFI-HSA variant R557A; N531D; Y403F; K504Y; E457G; E461Q (enzyme)”: the C4b Screen Ref Fold (fold of CFI-HSA wild type) in the assay with human C4b (human) was 3.51. Moreover, in assay [1], the iC3b Screen Ref Fold (fold of CFI-HSA wild type) is 0.42.
On to “CFI-HSA variant R557A; N531M; Y403F; K504Y; E457G; E461L (enzyme)”, for which the C4b Screen Ref Fold (fold of CFI-HSA wild type) with human C4b (human) is 3.18. In assay [1], the iC3b Screen Ref Fold (fold of CFI-HSA wild type) is 0.46.
With “CFI-HSA variant R557A; N531M; Y403F; K504Y; E457G; E461T (enzyme)”, the C4b Screen Ref Fold (fold of CFI-HSA wild type) in the assay with human C4b (human) was 3.31. Further, in assay [1], the iC3b Screen Ref Fold (fold of CFI-HSA wild type) is 0.4.
On the same counts, the results for “CFI-HSA variant R557A; N531M; Y403F; K504Y; E457G; E461V (enzyme)” are 3.17 and 0.46.
On to “CFI-HSA variant R557A; N531M; Y403F; K504Y; E457N; E461L (enzyme)”, for which the C4b Screen Ref Fold (fold of CFI-HSA wild type) in the assay with human C4b (human) was determined as 2.29. For the same substance, in assay [1], the iC3b Screen Ref Fold (fold of CFI-HSA wild type) worked out at 0.28.
In the same order, the values of “CFI-HSA variant R557A; N531M; Y403F; K504Y; E457N; E461Q (enzyme)” are 3.18 and 0.36.
On the same counts, the results for “CFI-HSA variant R557A; N531M; Y403F; K504Y; E457N; E461T (enzyme)” are 3.13 and 0.24.
On the same counts, the results for “CFI-HSA variant R557A; N531M; Y403F; K504Y; E457N; E461V (enzyme)” are 3.2 and 0.36.
Take CFI-HSA variant R557A; S507A (enzyme): the C4b Screen Ref Fold (fold of CFI-HSA wild type) with human C4b (human) worked out at 0.08. In addition, the iC3b Screen Ref Fold (fold of CFI-HSA wild type) in assay [1] was -0.02.
Regarding CFI-HSA variant T346H (enzyme), the C4b Screen Ref Fold (fold of reference) with human C4b (human) turned out to be 1.81. Also, the iC3b Screen Ref Fold (fold of reference) in assay [1] was determined as 0.67.
For CFI-HSA variant T346K (enzyme), the C4b Screen Ref Fold (fold of reference) with human C4b (human) was found to be 0.57. In assay [1], the iC3b Screen Ref Fold (fold of reference) was 0.96.
Regarding “CFI-HSA variant T346K; K504D; E530K (enzyme)”, the C4b Screen Ref Fold (fold of reference) with human C4b (human) is -0.02. Also, the iC3b Screen Ref Fold (fold of reference) in assay [1] was 0.4.
In the case of CFI-HSA variant T346R (enzyme), the C4b Screen Ref Fold (fold of reference) with human C4b (human) is 0.54. For the same substance, the iC3b Screen Ref Fold (fold of reference) in assay [1] was found to be 0.95.
As to “CFI-HSA variant T377G; N422K; D425K; E457G; E461Q; E530F; N531G (enzyme)”, in the assay with human C4b (human), the C4b Screen Ref Fold (fold of CFI-HSA wild type) was 3.74. Further, in assay [1], the iC3b Screen Ref Fold (fold of CFI-HSA wild type) amounted to 0.87.
CFI-HSA variant T377G; S507A (enzyme): the C4b Screen Ref Fold (fold of CFI-HSA wild type) in the assay with human C4b (human) was 0.05. For the same substance, the iC3b Screen Ref Fold (fold of CFI-HSA wild type) in assay [1] is -0.01.
In the same order, the values of “CFI-HSA variant T377G; Y408M; N422K; E457G; E461Q; E530F; N531G (enzyme)” are 2.93 and 1.15.
Consider CFI-HSA variant V390G (enzyme), for which the C4b Screen Ref Fold (fold of reference) in the assay with human C4b (human) was 0.5. Further, the iC3b Screen Ref Fold (fold of reference) in assay [1] worked out at 0.35.
Turning to CFI-HSA variant V463G (enzyme), in the assay with human C4b (human), the C4b Screen Ref Fold (fold of CFI-HSA wild type) came out at 0.08. Besides, the iC3b Screen Ref Fold (fold of CFI-HSA wild type) in assay [1] was 0.09.
With CFI-HSA variant W375G (enzyme), the C4b Screen Ref Fold (fold of CFI-HSA wild type) in the assay with human C4b (human) was found to be 0.08. The iC3b Screen Ref Fold (fold of CFI-HSA wild type) in assay [1] is -0.03.
Consider CFI-HSA variant W381A (enzyme), for which, in the assay with human C4b (human), the C4b Screen Ref Fold (fold of reference) is 0.09. Besides, the iC3b Screen Ref Fold (fold of reference) in assay [1] was -0.01.
On the same counts, the results for CFI-HSA variant W381A; P384A (enzyme) are -0.05 and -0.03.
Consider CFI-HSA variant W381A; ΔP384 (enzyme), for which the C4b Screen Ref Fold (fold of reference) with human C4b (human) was -0.05. Besides, in assay [1], the iC3b Screen Ref Fold (fold of reference) is 0.01.
In the same order, the values of “CFI-HSA variant W381G; P384A; V390G (enzyme)” are 0.26 and -0.01.
As for “CFI-HSA variant W381G; P384G; V390G (enzyme)”, the C4b Screen Ref Fold (fold of reference) in the assay with human C4b (human) is 0.12. Also, the iC3b Screen Ref Fold (fold of reference) in assay [1] is -0.02.
In the same order, the values of CFI-HSA variant W381G; V390G (enzyme) are 0.04 and -0.01.
CFI-HSA variant Y372G (enzyme): the C4b Screen Ref Fold (fold of reference) in the assay with human C4b (human) is 0.08. The iC3b Screen Ref Fold (fold of reference) in assay [1] was determined as 0.
Regarding CFI-HSA variant Y393G (enzyme), the C4b Screen Ref Fold (fold of CFI-HSA wild type) with human C4b (human) was -0.01. Besides, the iC3b Screen Ref Fold (fold of CFI-HSA wild type) in assay [1] turned out to be 0.71.
For “CFI-HSA variant Y403F; D425K; E457G; N531G (enzyme)”, in the assay with human C4b (human), the C4b Screen Ref Fold (fold of CFI-HSA wild type) was 3.85. The iC3b Screen Ref Fold (fold of CFI-HSA wild type) in assay [1] is 0.22.
As for CFI-HSA variant Y408F; K504Y (enzyme), the C4b Screen Ref Fold (fold of CFI-HSA wild type) in the assay with human C4b (human) worked out at 1.67. Also, the iC3b Screen Ref Fold (fold of CFI-HSA wild type) in assay [1] was determined as 0.97.
Consider CFI-HSA variant Y408F; N531M (enzyme), for which the C4b Screen Ref Fold (fold of CFI-HSA wild type) with human C4b (human) came out at 1.77. For the same substance, the iC3b Screen Ref Fold (fold of CFI-HSA wild type) in assay [1] was determined as 1.92.
With CFI-HSA variant Y408F; S507A (enzyme), the C4b Screen Ref Fold (fold of CFI-HSA wild type) with human C4b (human) came out at 0.07. In addition, the iC3b Screen Ref Fold (fold of CFI-HSA wild type) in assay [1] is -0.02.
As for CFI-HSA variant Y408M; E530F (enzyme), the C4b Screen Ref Fold (fold of CFI-HSA wild type) with human C4b (human) is 0.11. For the same substance, in assay [1], the iC3b Screen Ref Fold (fold of CFI-HSA wild type) amounted to 0.95.
Consider “CFI-HSA variant Y408M; E530F; F537K; K504R (enzyme)”, for which the C4b Screen Ref Fold (fold of CFI-HSA wild type) with human C4b (human) was determined as 0.05. Besides, in assay [1], the iC3b Screen Ref Fold (fold of CFI-HSA wild type) turned out to be 0.01.
Turning to “CFI-HSA variant Y408M; F537K; K504R; P558S (enzyme)”, the C4b Screen Ref Fold (fold of CFI-HSA wild type) with human C4b (human) stood at 0.07. Besides, the iC3b Screen Ref Fold (fold of CFI-HSA wild type) in assay [1] was determined as 1.26.
In the case of CFI-HSA variant Y408M; K504R (enzyme), the C4b Screen Ref Fold (fold of CFI-HSA wild type) with human C4b (human) is 0.09. For the same substance, the iC3b Screen Ref Fold (fold of CFI-HSA wild type) in assay [1] amounted to 0.83.
In the same order, the values of CFI-HSA variant Y408M; P558S (enzyme) are 0.06 and 1.13.
In the same order, the values of CFI-HSA variant Y408M; S507A (enzyme) are -0.02 and -0.04.
Consider CFI-HSA variant Y408S (enzyme), for which the C4b Screen Ref Fold (fold of reference) in the assay with human C4b (human) is -0.05. Further, the iC3b Screen Ref Fold (fold of reference) in assay [1] came out at 0.32.
For the substance “CFI-HSA-FH_CCP1-4 fusion, Y408L; N531G; E457G; E461Q; R462K; F464Y; GGSSGG (SEQ ID NO: 6); CCP_1-4 (enzyme)”, the C4b Screen Ref Fold (fold of reference) with human C4b (human) amounted to 1.28. The iC3b Screen Ref Fold (fold of reference) in assay [1] was determined as 0.04.

Source of the values: patent US20230038638A1, “COMPLEMENT FACTOR I-RELATED COMPOSITIONS AND METHODS” (published 2023).
